Source: article PMC4499158, “Outwitting EF-Tu and the ribosome: translation with d-amino acids”

Molecular target: EF-Tu (GTP form) (Escherichia coli K12 MG1655, UniProt P0CE47 1-394)
Experiment: EMSA; GTP; L-Gln-tRNA; Native PAGE EMSA; EF-Tu preincubated with GTP, phosphoenol pyruvate and pyruvate kinase, 20 µl reactions, 3'-32P aminoacyl-tRNA; buffer, salt, pH and temperature not in the material
Settings: protein: recombinant; tags: StrepTag or TwinStrep-Tag; label: 3' 32P; tRNA cloverleaf

Chain of EF-Tu (GTP form) (P0CE47 whole entry): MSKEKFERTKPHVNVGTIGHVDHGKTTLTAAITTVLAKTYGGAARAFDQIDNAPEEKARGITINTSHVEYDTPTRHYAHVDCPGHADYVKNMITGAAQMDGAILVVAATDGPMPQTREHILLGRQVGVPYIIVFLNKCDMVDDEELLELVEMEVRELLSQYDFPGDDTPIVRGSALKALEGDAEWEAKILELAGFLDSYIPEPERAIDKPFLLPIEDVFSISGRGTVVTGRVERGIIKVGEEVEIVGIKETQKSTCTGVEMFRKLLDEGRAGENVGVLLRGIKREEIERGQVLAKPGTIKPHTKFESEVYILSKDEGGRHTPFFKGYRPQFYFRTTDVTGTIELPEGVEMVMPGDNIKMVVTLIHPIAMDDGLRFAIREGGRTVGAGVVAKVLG

B1: tRNAGly tp (structured_RNA)
RNA: GCGGGCGUAGUUCAAUGGUAGAACGAGAGCUUCCCAAGCUCUAUACGAAGGUUCGAUUCCUUCCGCCCGCUCCA
modifications: 3'-aminoacyl as per row
binding result: binds
